For 35 variants, abundance fitness results are on record in the Human Domainome abundance scans (Beltran et al. 2025).

± gives the uncertainty stated by the source.

Sequences and labels used below:
B1: Zinc finger MYM-type protein 6, residues 427 to 504; numbered along this chain, O95789 (parent)
chain: KLKCQHCNHLFATKPELLFYKGKMFLFCGKNCSDEYKKKNKVVAMCDYCKLQKIIKETVRFSGVDKPFCSEVCKFLSA

In this data set the parent is B1. The experiment in a line: abundance fitness (aPCA) (normalised: wild type 0, dead -1); higher = more abundant; growth selection in yeast, the domain comes from the species named. The conditions noted are these: Homo sapiens.
Regarding KLKCQHCNHLFATKPELLFYKGKMFLFCGKNCSDEYKKKNKVVAMCDYCKLQKIPKETVRFSGVDKPFCSEVCKFLSA [I55P], the abundance fitness was found to be 0.281 ± 0.2.
Consider KLKCQHCNHLFATKPELLFYKGKMFLFCGKNCSDEYKKKNKVVAMCDYCKLQKIRKETVRFSGVDKPFCSEVCKFLSA [I55R], for which the abundance fitness is -0.055 ± 0.077.
The same measure for KLKCQHCNHLFATKPELLFYKGKMFLFCGKNCSDEYKKKNKVVAMCDYCKLQKIMKETVRFSGVDKPFCSEVCKFLSA [I55M]: 0.211 ± 0.31.
On to KLKCQHCNHLFATKPELLFYKGKMFLFCGKNCSDEYKKKNKVVAMCDYCKLQKIAKETVRFSGVDKPFCSEVCKFLSA [I55A], for which the abundance fitness turned out to be 0.243 ± 0.082.
As for KLKCQHCNHLFATKPELLFYKGKMFLFCGKNCSDEYKKKNKVVAMCDYCKLQKILKETVRFSGVDKPFCSEVCKFLSA [I55L], the abundance fitness is -0.774 ± 0.25.
Take KLKCQHCNHLFATKPELLFYKGKMFLFCGKNCSDEYKKKNKVVAMCDYCKLQKIQKETVRFSGVDKPFCSEVCKFLSA [I55Q]: the abundance fitness was -0.185 ± 0.18.
The same measure for KLKCQHCNHLFATKPELLFYKGKMFLFCGKNCSDEYKKKNKVVAMCDYCKLQKIWKETVRFSGVDKPFCSEVCKFLSA [I55W]: -0.623 ± 0.17; for KLKCQHCNHLFATKPELLFYKGKMFLFCGKNCSDEYKKKNKVVAMCDYCKLQKIHKETVRFSGVDKPFCSEVCKFLSA [I55H]: 0.164 ± 0.15; for KLKCQHCNHLFATKPELLFYKGKMFLFCGKNCSDEYKKKNKVVAMCDYCKLQKIGKETVRFSGVDKPFCSEVCKFLSA [I55G]: 0.16 ± 0.063.
On to KLKCQHCNHLFATKPELLFYKGKMFLFCGKNCSDEYKKKNKVVAMCDYCKLQKITKETVRFSGVDKPFCSEVCKFLSA [I55T], for which the abundance fitness is 0.161 ± 0.1.
For the variant KLKCQHCNHLFATKPELLFYKGKMFLFCGKNCSDEYKKKNKVVAMCDYCKLQKIEKETVRFSGVDKPFCSEVCKFLSA [I55E], the abundance fitness turned out to be 0.197 ± 0.12.
Consider KLKCQHCNHLFATKPELLFYKGKMFLFCGKNCSDEYKKKNKVVAMCDYCKLQKIKKETVRFSGVDKPFCSEVCKFLSA [I55K], for which the abundance fitness is -0.138 ± 0.46.
Regarding KLKCQHCNHLFATKPELLFYKGKMFLFCGKNCSDEYKKKNKVVAMCDYCKLQKIVKETVRFSGVDKPFCSEVCKFLSA [I55V], the abundance fitness amounted to 0.32 ± 0.07.
On to KLKCQHCNHLFATKPELLFYKGKMFLFCGKNCSDEYKKKNKVVAMCDYCKLQKISKETVRFSGVDKPFCSEVCKFLSA [I55S], for which the abundance fitness turned out to be 0.305 ± 0.088.
As for KLKCQHCNHLFATKPELLFYKGKMFLFCGKNCSDEYKKKNKVVAMCDYCKLQKIIKETMRFSGVDKPFCSEVCKFLSA [V59M], the abundance fitness came out at 0.461 ± 0.24.
Take KLKCQHCNHLFATKPELLFYKGKMFLFCGKNCSDEYKKKNKVVAMCDYCKLQKIIKETQRFSGVDKPFCSEVCKFLSA [V59Q]: the abundance fitness is -0.416 ± 0.12.
Regarding KLKCQHCNHLFATKPELLFYKGKMFLFCGKNCSDEYKKKNKVVAMCDYCKLQKIIKETKRFSGVDKPFCSEVCKFLSA [V59K], the abundance fitness is -0.051 ± 0.11.
As for KLKCQHCNHLFATKPELLFYKGKMFLFCGKNCSDEYKKKNKVVAMCDYCKLQKIIKETLRFSGVDKPFCSEVCKFLSA [V59L], the abundance fitness amounted to 0.051 ± 0.13.
Take KLKCQHCNHLFATKPELLFYKGKMFLFCGKNCSDEYKKKNKVVAMCDYCKLQKIIKETDRFSGVDKPFCSEVCKFLSA [V59D]: the abundance fitness is -0.246 ± 0.21.
Next, KLKCQHCNHLFATKPELLFYKGKMFLFCGKNCSDEYKKKNKVVAMCDYCKLQKIIKETCRFSGVDKPFCSEVCKFLSA [V59C]: -0.452 ± 0.38; KLKCQHCNHLFATKPELLFYKGKMFLFCGKNCSDEYKKKNKVVAMCDYCKLQKIIKETERFSGVDKPFCSEVCKFLSA [V59E]: -0.053 ± 0.13.
Consider KLKCQHCNHLFATKPELLFYKGKMFLFCGKNCSDEYKKKNKVVAMCDYCKLQKIIKETARFSGVDKPFCSEVCKFLSA [V59A], for which the abundance fitness is -0.078 ± 0.095.
As to KLKCQHCNHLFATKPELLFYKGKMFLFCGKNCSDEYKKKNKVVAMCDYCKLQKIIKETSRFSGVDKPFCSEVCKFLSA [V59S], the abundance fitness was -0.314 ± 0.12.
The same measure for KLKCQHCNHLFATKPELLFYKGKMFLFCGKNCSDEYKKKNKVVAMCDYCKLQKIIKETYRFSGVDKPFCSEVCKFLSA [V59Y]: -0.536 ± 0.42; for KLKCQHCNHLFATKPELLFYKGKMFLFCGKNCSDEYKKKNKVVAMCDYCKLQKIIKETPRFSGVDKPFCSEVCKFLSA [V59P]: -0.246 ± 0.15.
For KLKCQHCNHLFATKPELLFYKGKMFLFCGKNCSDEYKKKNKVVAMCDYCKLQKIIKETRRFSGVDKPFCSEVCKFLSA [V59R], the abundance fitness is -0.42 ± 0.084.
On to KLKCQHCNHLFATKPELLFYKGKMFLFCGKNCSDEYKKKNKVVAMCDYCKLQKIIKETTRFSGVDKPFCSEVCKFLSA [V59T], for which the abundance fitness was 0.204 ± 0.18.
For KLKCQHCNHLFATKPELLFYKGKMFLFCGKNCSDEYKKKNKVVAMCDYCKLQKIIKETWRFSGVDKPFCSEVCKFLSA [V59W], the abundance fitness is -0.344 ± 0.17.
Consider KLKCQHCNHLFATKPELLFYKGKMFLFCGKNCSDEYKKKNKVVAMCDYCKLQKIIEETVRFSGVDKPFCSEVCKFLSA [K56E], for which the abundance fitness is -0.49 ± 0.15.
As to KLKCQHCNHLFATKPELLFYKGKMFLFCGKNCSDEYKKKNKVVAMCDYCKLQKIISETVRFSGVDKPFCSEVCKFLSA [K56S], the abundance fitness is -0.411 ± 0.15.
For KLKCQHCNHLFATKPELLFYKGKMFLFCGKNCSDEYKKKNKVVAMCDYCKLQKIIVETVRFSGVDKPFCSEVCKFLSA [K56V], the abundance fitness was -0.071 ± 0.092.
As for KLKCQHCNHLFATKPELLFYKGKMFLFCGKNCSDEYKKKNKVVAMCDYCKLQKIIMETVRFSGVDKPFCSEVCKFLSA [K56M], the abundance fitness came to 0.511 ± 0.12.
For KLKCQHCNHLFATKPELLFYKGKMFLFCGKNCSDEYKKKNKVVAMCDYCKLQKIIWETVRFSGVDKPFCSEVCKFLSA [K56W], the abundance fitness was -0.16 ± 0.092.
Next, KLKCQHCNHLFATKPELLFYKGKMFLFCGKNCSDEYKKKNKVVAMCDYCKLQKIIGETVRFSGVDKPFCSEVCKFLSA [K56G]: -0.192 ± 0.078; KLKCQHCNHLFATKPELLFYKGKMFLFCGKNCSDEYKKKNKVVAMCDYCKLQKIIHETVRFSGVDKPFCSEVCKFLSA [K56H]: -0.113 ± 0.15.
